Experimental findings from patent publication US20260049143A1 (KYMAB, published 2026) are described below.

The target in assay [1] is T1, mouse ICOS expressed on CHO cells (mouse, UniProt Q9WVS0 21-141).
T1 construct: the cell-expressed form may differ; also called mICOS; CHO mouse ICOS
T1 sequence: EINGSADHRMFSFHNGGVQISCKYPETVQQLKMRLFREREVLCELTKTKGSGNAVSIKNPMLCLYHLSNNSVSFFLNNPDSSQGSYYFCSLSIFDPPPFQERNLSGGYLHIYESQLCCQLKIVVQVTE
The assay can be described thus: flow cytometry, CHO mouse ICOS cells, anti-human IgG AF647, mean. The protocol: (§1) CHO-S cells transfected with either human ICOS or mouse ICOS were resuspended in FACS buffer (PBS+1% w/v BSA+0.1% w/v sodium azide) and transferred to a 96-well V-bottom plate (Greiner) at a density of 1×10⁵ cells per well. mAb and mAb² were titrated in FACS buffer, 1 in 3 dilution across 11 points from a starting working concentration of 400 nM. Plates were centrifuged at 300×g for 3 minutes, supernatant discarded and 50 μL mAb or mAb² solution were added to cells and incubated at 4° C. for 1 hour. Cells were washed with 150 μL of PBS and centrifuged at 300×g for 3 minutes, supernatant was discarded and cell pellet resuspended in 150 μL PBS added. This wash step was repeated twice. […] Cells were incubated for 1 hour at 4° C. in the dark. Cells were washed with 150 μL of PBS and centrifuged at 300 g for 3 minutes, supernatant was discarded and cell pellet resuspended in 150 μL PBS added. This wash step was repeated twice. Cells were fixed with 25 μL 4% v/v paraformaldehyde, incubated for 20 minutes at 4° C., cells were pelleted by centrifugation at 300×g and the supernatant discarded. Cells were washed with 150 μL of PBS and centrifuged at 300 g for 3 minutes, supernatant was discarded and cell pellet resuspended in 150 μL PBS added. This wash step was repeated. Pelleted cells were resuspended in 110 μL 1×PBS.
For orientation: In flow cytometry, cells or beads pass a laser one at a time.

Assay [2] deals with T2, human ICOS-mFc (Chimerigen) (human, UniProt Q9Y6W8 21-140, limits assumed).
T2 construct: Bought fusion; also called hICOS; recombinant human ICOS protein; not shown: mouse Fc
T2 sequence: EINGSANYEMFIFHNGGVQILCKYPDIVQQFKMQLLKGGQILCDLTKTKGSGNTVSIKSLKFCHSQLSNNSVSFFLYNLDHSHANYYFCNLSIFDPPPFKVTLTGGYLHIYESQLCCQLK
The assay can be described thus: DELFIA ELISA, coated human ICOS-mFc, mean. As to the method: Recombinant ICOS proteins, human ICOS-mFc or mouse ICOS-mFc (Chimerigen) were diluted in 1×PBS and added to Black Hi-bind plates (Griener) at 1 μg/ml, 50 μl/well. Recombinant PD-L1 proteins, human PD-L1-Flag-His or mouse-His were diluted in 1×PBS and added to Black Hi-bind plates (Griener) at 4 μg/ml, 50 μl/well. The plates were left overnight at 4° C. The next day plates were washed 3× with 300 μl/well of 1×PBS+0.1% Tween and blocked with 200 μl/well of 1×PBS+1% BSA blocking buffer for 1 hr at RT on a plate shaker. Plates were washed 3× with 300 μl/well of 1×PBS+0.1% Tween.
However, human-PD-L1 mAb² antibodies were diluted in 1×PBS+0.1% BSA buffer and diluted 1 in 2 from a starting working concentration of 0.066 μM over an 11 point titration. Titrated antibodies were added to the plates, 50 μl/well and left to incubate for 1 hr at R.T on a plate shaker. Plates were washed 3× with 300 μl/well of 1×PBS+0.1% Tween.
DELFIA® Eu-labelled Anti-human IgG(Perkin-Elmer) was diluted 1:500 in DELFIA Assay buffer (Perkin-Elmer) and added to the assay plate (50 μl/well), left to incubate for 1 hr at RT on a plate shaker. […] After incubation, assay was read on Envision plate reader (Perkin Elmer), Time-resolved fluorescence (TRF) was measured at 615 nm.
For orientation: ELISA stands for enzyme-linked immunosorbent assay.

Assay [3] concerns the target T2, human ICOS-mFc (Chimerigen). The assay can be described thus: HTRF neutralisation of human B7-H2 binding to human ICOS-mFc, n1. As to the method:
(§2) 5 μl of human ICOS-mFc (Chimerigen) at 20 nM (5 nM final) or 5 μl of mouse ICOS-mFc (Chimerigen) at 4 nM (1 nM final) were added to relevant assay wells. Plate was incubated for 1 hour (hr) at room temperature (RT).
(§3) After incubation, assay was read on Envision plate reader (Perkin Elmer) using a standard HTRF protocol. 620 nm and 665 nm channel values were exported to Microsoft Excel and % Delta-F and % Neutralisation calculations performed. Titration curves and IC50 values [M] were plotted using Graphpad (Prism). IC50 values were calculated by first transforming the data using equation X=Log(X). The transformed data was then fitted using nonlinear regression, using fitting algorithm, log (inhibitor) vs. response-variable slope (four parameters).
(TR-FRET usually uses a lanthanide donor and a delayed reading to cut background.)

Assay [4] addresses T3, Biotinylated human ICOS protein (human, UniProt Q9Y6W8 21-140, limits assumed, biotinylated).
T3 sequence: T2 sequence
The assay can be described thus: avidity SPR (ProteOn), biotinylated hICOS on NLC chip, antibody analyte; apparent KD from equilibrium. As to the method:
Biotinylated human ICOS protein diluted at 7.5 μg/mL in running buffer (1×HBS-EP+Buffer Technova, cat. No. H8022) was captured on a NLC sensor chip (Bio-Rad, cat No 1765021). The surface was then blocked using biocytin (Sigma Aldrich, cat No B1758) at 1 mg/mL.
The assay was carried out at 25° C.
The buffer injection (i.e. 0 nM) was used to double reference the sensorgrams. The analysis was carried out using the equilibrium model inherent to the ProteOn's analysis software for each mAb² construct.

Assay [5] deals with T2, human ICOS-mFc (Chimerigen). Kind of assay: HTRF neutralisation of human B7-H2 binding to human ICOS-mFc, n3. As to the method: as §2, §3
Assay [6] deals with T1, mouse ICOS expressed on CHO cells. Kind of assay: flow cytometry, CHO mouse ICOS cells, anti-human IgG AF647, N=1. As to the method: as §1
Assay [7] has the same target. Kind of assay: flow cytometry, CHO mouse ICOS cells, anti-human IgG AF647, N=3. The protocol: as §1
Assay [8] deals with T2, human ICOS-mFc (Chimerigen). Kind of assay: HTRF neutralisation of human B7-H2 binding to human ICOS-mFc, n2. As to the method:
as §2, §3

Assay [9] has as its target T4, mouse ICOS-mFc (Chimerigen) (mouse, UniProt Q9WVS0 21-141, limits assumed).
T4 construct: Bought fusion; also called mICOS; recombinant mouse ICOS protein; not shown: mouse Fc
T4 sequence: T1 sequence
Kind of assay: HTRF neutralisation of mouse B7-H2 binding to mouse ICOS-mFc, n1. As to the method: as §2, §3

B1: STIM003_457 (bispecific antibody, V domains shown, not shown: a dimerising Fc or GST)
VH: EVQLVESGGGVVRPGGSLRLSCVASGVTFDDYGMSWVRQAPGKGLEWVSGINWNGGDTDYSDSVKGRFTISRDNAKNSLYLQMNSLRAEDTALYYCARDFYGSGSYYHVPFDYWGQGILVTVSS
VL: EIVLTQSPGTLSLSPGERATLSCRASQSVSRSYLAWYQQKRGQAPRLLIYGASSRATGIPDRFSGDGSGTDFTLSISRLEPEDFAVYYCHQYDMSPFTFGPGTKVDIK
notes: mAb^2 IgG1; also called ST1M003_457; STIM003_457 mAb^2
A word on the EC50: it is the concentration at which the effect is half-maximal. Low values mean higher potency in that assay, high ones lower potency in that assay. For orientation: IC50 means the concentration that gives 50% inhibition. A higher IC50 goes with weaker potency in that assay. B1: the EC50 in assay [1] was 10.6 nM; in assay [2], 0.43 nM; in [6], 8.92 nM; in assay [7], 11.9 nM. Besides, the IC50 stood at 0.44 nM in [3], 0.77 nM in [5], 0.47 nM in assay [8] and 0.087 nM in assay [9]. Also, the Kd in assay [4] was 0.9 nM.

B2: STIM001_457 (bispecific antibody, V domains shown, not shown: a dimerising Fc or GST)
VH: QVQVVQSGAEVKKPGASVKVSCKASGYTFSTFGITWVRQAPGQGLEWMGWISAYNGDTNYAQNLQGRVIMTTDTSTSTAYMELRSLRSDDTAVYYCARSSGHYYYYGMDVWGQGTTVTVSS
VL: DIVMTQSPLSLPVTPGEPASISCRSSQSLLHSNEYNYLDWYLQKPGQSPQLLIFLGSNRASGVPDRFSGSGSGTDFTLKITRVEAEDVGIYYCMQSLQTPLTFGGGTKVEIK
notes: mAb^2 IgG1; also called STIM001_457 mAb^2
With B2, the EC50 in assay [1] turned out to be 5.21 nM; in [2], 12.6 nM; in assay [6], 5.14 nM; in assay [7], 6.97 nM. Also, the IC50 in [3] was 1.1 nM; in assay [5], 2.38 nM; in assay [8], 1.32 nM; in assay [9], 3.39 nM. Also, in assay [4], the Kd amounted to 9.2 nM.
